From publication PMC11065870

Columns and labels:
[1] = mass photometry in GDN, super-dimer/heterodimer ratio; conditions: glycan changed form; control: fully sialylated WT
[2] = native MS, super-dimer vs heterodimer abundance; conditions: glycan changed form; control: fully glycosylated WT

B1: 4F2hc (4F2 cell-surface antigen heavy chain): neuraminidase (desialylated) (protein)
parent chain: MELQPPEASIAVVSIPRQLPGSHSEAGVQGLSAGDDSELGSHCVAQTGLELLASGDPLPSASQNAEMIETGSDCVTQAGLQLLASSDPPALASKNAEVTGTMSQDTEVDMKEVELNELEPEKQPMNAASGAAMSLAGAEKNGLVKIKVAEDEAEAAAAAKFTGLSKEELLKVAGSPGWVRTRWALLLLFWLGWLGMLAGAVVIIVRAPRCRELPAQKWWHTGALYRIGDLQAFQGHGAGNLAGLKGRLDYLSSLKVKGLVLGPIHKNQKDDVAQTDLLQIDPNFGSKEDFDSLLQSAKKKSIRVILDLTPNYRGENSWFSTQVDTVATKVKDALEFWLQAGVDGFQVRDIENLKDASSFLAEWQNITKGFSEDRLLIAGTNSSDLQQILSLLESNKDLLLTSSYLSDSGSTGEHTKSLVTQYLNATGNRWCSWSLSQARLLTSFLPAQLLRLYQLMLFTLPGTPVFSYGDEIGLDAAALPGQPMEAPVMLWDESSFPDIPGAVSANMTVKGQSEDPGSLLSLFRRLSDQRSKERSLLHGDFHAFSAGPGLFSYIRHWDQNERFLVVLNFGDVGLSAGLQASDLPASASLPAKADLLLSTQPGREEGSPLELERLKLEPHEGLLLRFPYAA
- oligomerisation [1]: decreases
- oligomerisation [2]: decreases
